We go through one molecule from patent US20040071717A1.

The assay concerns the target specific IgE from a pool of sera from plantain-allergic patients. Nature of the assay: inhibition ELISA: nPla I 1 coated on plate, pooled-serum IgE inhibited by rPla I 1.0101, detection with HRP-labeled anti-human IgE.

B1: recombinant Pla I 1 allergen, variant 0101 (rPla I 1.0101), expressed in Pichia pastoris (protein)
chain: ETQTSHPAKFHVEGEVYCNVCHSRNLINELSERMAGAQVQLDCKDDSKKVIYSIGGETDQDGVYRLPVVGYHEDCEIKLVKSSRPDCSEIPKLAKGTIQTSKVDLSKNTTITEKTRHVKPLSFRAKTDAPGC
modifications: partly N-glycosylated (glycosylated 22 kDa and non-glycosylated 17 kDa forms; potential N-glycosylation site at position 107)
Regarding B1, the % inhibition of IgE-binding stood at 80%.
